Measured values from US20090298765A1 (Takeda / Millennium, published 2009).
Non-standard residues stand in square brackets, D forms with d. No end group written: not given here. Phe(3-Cl) = N[C@@H](Cc1cccc(Cl)c1)C(=O)O; Phe(4-Cl) = N[C@@H](Cc1ccc(Cl)cc1)C(=O)O; Phe(4-NH2) = Nc1ccc(C[C@H](N)C(=O)O)cc1; Phe(2-Cl) = N[C@@H](Cc1ccccc1Cl)C(=O)O; 1Nal = N[C@@H](Cc1cccc2ccccc12)C(=O)O; 2Nal = N[C@@H](Cc1ccc2ccccc2c1)C(=O)O; Arg(Me) = CNC(=N)NCCC[C@H](N)C(=O)O; azaGly = NNC(=O)O

B1: [D-Tyr1,Nal(1)3,AzaGly7,Arg(Me)9]MS10 (peptide)
peptide: [dY]N[1Nal]NSF[azaGly]L[Arg(Me)]F-NH2
modifications: N-terminus assumed
SMILES: CNC(=N)NCCC[C@H](NC(=O)[C@H](CC(C)C)NC(=O)NNC(=O)[C@H](Cc1ccccc1)NC(=O)[C@H](CO)NC(=O)[C@H](CC(N)=O)NC(=O)[C@H](Cc1cccc2ccccc12)NC(=O)[C@H](CC(N)=O)NC(=O)[C@H](N)Cc1ccc(O)cc1)C(=O)N[C@@H](Cc1ccccc1)C(N)=O
notes: also called Compound No. 245
B2: [D-Tyr1,Ala3,AzaGly7,Arg(Me)9]MS10 (peptide)
peptide: [dY]NANSF[azaGly]L[Arg(Me)]F-NH2
modifications: N-terminus assumed
SMILES: CNC(=N)NCCC[C@H](NC(=O)[C@H](CC(C)C)NC(=O)NNC(=O)[C@H](Cc1ccccc1)NC(=O)[C@H](CO)NC(=O)[C@H](CC(N)=O)NC(=O)[C@H](C)NC(=O)[C@H](CC(N)=O)NC(=O)[C@H](N)Cc1ccc(O)cc1)C(=O)N[C@@H](Cc1ccccc1)C(N)=O
notes: also called Compound No. 235
B3: [D-Tyr1,Val3,Arg(Me)9]MS10 (peptide)
peptide: [dY]NVNSFGL[Arg(Me)]F-NH2
modifications: N-terminus assumed
SMILES: CNC(=N)NCCC[C@H](NC(=O)[C@H](CC(C)C)NC(=O)CNC(=O)[C@H](Cc1ccccc1)NC(=O)[C@H](CO)NC(=O)[C@H](CC(N)=O)NC(=O)[C@@H](NC(=O)[C@H](CC(N)=O)NC(=O)[C@H](N)Cc1ccc(O)cc1)C(C)C)C(=O)N[C@@H](Cc1ccccc1)C(N)=O
notes: also called Compound No. 229
B4: [D-Tyr1,Phe(2Cl)3,AzaGly7,Arg(Me)9]MS10 (peptide)
peptide: [dY]N[Phe(2-Cl)]NSF[azaGly]L[Arg(Me)]F-NH2
modifications: N-terminus assumed
SMILES: CNC(=N)NCCC[C@H](NC(=O)[C@H](CC(C)C)NC(=O)NNC(=O)[C@H](Cc1ccccc1)NC(=O)[C@H](CO)NC(=O)[C@H](CC(N)=O)NC(=O)[C@H](Cc1ccccc1Cl)NC(=O)[C@H](CC(N)=O)NC(=O)[C@H](N)Cc1ccc(O)cc1)C(=O)N[C@@H](Cc1ccccc1)C(N)=O
notes: also called Compound No. 247
B5: [D-Tyr1,Thr3,Arg(Me)9]MS10 (peptide)
peptide: [dY]NTNSFGL[Arg(Me)]F-NH2
modifications: N-terminus assumed
SMILES: CNC(=N)NCCC[C@H](NC(=O)[C@H](CC(C)C)NC(=O)CNC(=O)[C@H](Cc1ccccc1)NC(=O)[C@H](CO)NC(=O)[C@H](CC(N)=O)NC(=O)[C@@H](NC(=O)[C@H](CC(N)=O)NC(=O)[C@H](N)Cc1ccc(O)cc1)[C@@H](C)O)C(=O)N[C@@H](Cc1ccccc1)C(N)=O
notes: also called Compound No. 205
B6: [D-Tyr1,Phe(4NH2)3,AzaGly7,Arg(Me)9]MS10 (peptide)
peptide: [dY]N[Phe(4-NH2)]NSF[azaGly]L[Arg(Me)]F-NH2
modifications: N-terminus assumed
SMILES: CNC(=N)NCCC[C@H](NC(=O)[C@H](CC(C)C)NC(=O)NNC(=O)[C@H](Cc1ccccc1)NC(=O)[C@H](CO)NC(=O)[C@H](CC(N)=O)NC(=O)[C@H](Cc1ccc(N)cc1)NC(=O)[C@H](CC(N)=O)NC(=O)[C@H](N)Cc1ccc(O)cc1)C(=O)N[C@@H](Cc1ccccc1)C(N)=O
notes: also called Compound No. 250
B7: [D-Tyr1,Val3,AzaGly7,Arg(Me)9]MS10 (peptide)
peptide: [dY]NVNSF[azaGly]L[Arg(Me)]F-NH2
modifications: N-terminus assumed
SMILES: CNC(=N)NCCC[C@H](NC(=O)[C@H](CC(C)C)NC(=O)NNC(=O)[C@H](Cc1ccccc1)NC(=O)[C@H](CO)NC(=O)[C@H](CC(N)=O)NC(=O)[C@@H](NC(=O)[C@H](CC(N)=O)NC(=O)[C@H](N)Cc1ccc(O)cc1)C(C)C)C(=O)N[C@@H](Cc1ccccc1)C(N)=O
notes: also called Compound No. 234
B8: [D-Tyr1,Ile3,AzaGly7,Arg(Me)9]MS10 (peptide)
peptide: [dY]NINSF[azaGly]L[Arg(Me)]F-NH2
modifications: N-terminus assumed
SMILES: CC[C@H](C)[C@H](NC(=O)[C@H](CC(N)=O)NC(=O)[C@H](N)Cc1ccc(O)cc1)C(=O)N[C@@H](CC(N)=O)C(=O)N[C@@H](CO)C(=O)N[C@@H](Cc1ccccc1)C(=O)NNC(=O)N[C@@H](CC(C)C)C(=O)N[C@@H](CCCNC(=N)NC)C(=O)N[C@@H](Cc1ccccc1)C(N)=O
notes: also called Compound No. 233
B9: [D-Tyr1,Thr2,Arg(Me)9]MS10 (peptide)
peptide: [dY]TWNSFGL[Arg(Me)]F-NH2
modifications: N-terminus assumed
SMILES: CNC(=N)NCCC[C@H](NC(=O)[C@H](CC(C)C)NC(=O)CNC(=O)[C@H](Cc1ccccc1)NC(=O)[C@H](CO)NC(=O)[C@H](CC(N)=O)NC(=O)[C@H](Cc1c[nH]c2ccccc12)NC(=O)[C@@H](NC(=O)[C@H](N)Cc1ccc(O)cc1)[C@@H](C)O)C(=O)N[C@@H](Cc1ccccc1)C(N)=O
notes: also called Compound No. 215
B10: [D-Tyr1,Ala7,Arg(Me)9]MS10 (peptide)
peptide: [dY]NWNSFAL[Arg(Me)]F-NH2
modifications: N-terminus assumed
SMILES: CNC(=N)NCCC[C@H](NC(=O)[C@H](CC(C)C)NC(=O)[C@H](C)NC(=O)[C@H](Cc1ccccc1)NC(=O)[C@H](CO)NC(=O)[C@H](CC(N)=O)NC(=O)[C@H](Cc1c[nH]c2ccccc12)NC(=O)[C@H](CC(N)=O)NC(=O)[C@H](N)Cc1ccc(O)cc1)C(=O)N[C@@H](Cc1ccccc1)C(N)=O
notes: also called Compound No. 204
B11: [D-Tyr1,Phe(4Cl)3,AzaGly7,Arg(Me)9]MS10 (peptide)
peptide: [dY]N[Phe(4-Cl)]NSF[azaGly]L[Arg(Me)]F-NH2
modifications: N-terminus assumed
SMILES: CNC(=N)NCCC[C@H](NC(=O)[C@H](CC(C)C)NC(=O)NNC(=O)[C@H](Cc1ccccc1)NC(=O)[C@H](CO)NC(=O)[C@H](CC(N)=O)NC(=O)[C@H](Cc1ccc(Cl)cc1)NC(=O)[C@H](CC(N)=O)NC(=O)[C@H](N)Cc1ccc(O)cc1)C(=O)N[C@@H](Cc1ccccc1)C(N)=O
notes: also called Compound No. 249
B12: [D-Tyr1,Nal(2)3,AzaGly7,Arg(Me)9]MS10 (peptide)
peptide: [dY]N[2Nal]NSF[azaGly]L[Arg(Me)]F-NH2
modifications: N-terminus assumed
SMILES: CNC(=N)NCCC[C@H](NC(=O)[C@H](CC(C)C)NC(=O)NNC(=O)[C@H](Cc1ccccc1)NC(=O)[C@H](CO)NC(=O)[C@H](CC(N)=O)NC(=O)[C@H](Cc1ccc2ccccc2c1)NC(=O)[C@H](CC(N)=O)NC(=O)[C@H](N)Cc1ccc(O)cc1)C(=O)N[C@@H](Cc1ccccc1)C(N)=O
notes: also called Compound No. 246

Tests used:
[1] = target: T1, human OT7T175 (metastin receptor) (human, UniProt Q969F8 1-398); test: competition with Cy-5 metastin (40-54) on hOT7T175-CHO cells, FMAT
T1 construct: expressed on CHO cells; also called hOT7T175; hOT7T175-expressed CHO cells
T1 sequence (Q969F8 whole entry L364H): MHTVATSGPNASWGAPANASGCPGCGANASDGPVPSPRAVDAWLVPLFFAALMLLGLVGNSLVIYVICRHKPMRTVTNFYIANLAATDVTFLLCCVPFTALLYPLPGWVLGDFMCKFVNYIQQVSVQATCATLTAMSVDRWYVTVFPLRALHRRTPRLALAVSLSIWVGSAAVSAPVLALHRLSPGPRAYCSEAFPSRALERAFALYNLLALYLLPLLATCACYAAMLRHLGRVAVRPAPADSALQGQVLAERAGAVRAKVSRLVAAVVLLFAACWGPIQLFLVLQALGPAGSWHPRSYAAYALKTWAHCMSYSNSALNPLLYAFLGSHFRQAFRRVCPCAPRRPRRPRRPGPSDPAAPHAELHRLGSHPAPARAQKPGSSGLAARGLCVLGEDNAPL

[2] = target: T1, human OT7T175 (metastin receptor); test: cell-based or functional assay

Row | Binder | IC50 [1] [nM] | Ca ion level-increasing activity (FLIPR) [2]
1 | B1 | 98 | 1 x Metastin (1-54)
2 | B2 | 100 | 1 x Metastin (1-54)
3 | B3 | 130 | 1 x Metastin (1-54)
4 | B4 | 45 | 1 x Metastin (1-54)
5 | B5 | 260 | 10 x Metastin (1-54)
6 | [dY]N[Phe(3-Cl)]NSF[azaGly]L[Arg(Me)]F-NH2 (also called Compound No. 248) [[D-Tyr1,Phe(3Cl)3,AzaGly7,Arg(Me)9]MS10] | 58 | 2 x Metastin (1-54)
7 | B6 | 3.7 | 1 x Metastin (1-54)
8 | [dY]NFNSF[azaGly]L[Arg(Me)]F-NH2 (also called Compound No. 244) [[D-Tyr1,Phe3,AzaGly7,Arg(Me)9]MS10] | 77 | 1 x Metastin (1-54)
9 | B7 | 47 | 1 x Metastin (1-54)
10 | B8 | 23 | 1 x Metastin (1-54)
11 | [dY]NWNSFGV[Arg(Me)]F-NH2 (also called Compound No. 213) [[D-Tyr1,Val8,Arg(Me)9]MS10] | 190 | 2 x Metastin (1-54)
12 | [dY]QWNSFGL[Arg(Me)]F-NH2 (also called Compound No. 214) [[D-Tyr1,Gln2,Arg(Me)9]MS10] | 390 | 10 x Metastin (1-54)
13 | B9 | 250 | 10 x Metastin (1-54)
14 | B10 | 680 | 5 x Metastin (1-54)
15 | B11 | 150 | 1 x Metastin (1-54)
16 | B12 | 7.1 | 2 x Metastin (1-54)
